# Results as given in patent US20240254192A1.
# Columns and labels:
# [1] = molecular target: tBCMA [BCMA extracellular domain - PDL1 hinge & TM plus Trop2 cytoplasmic domain]; experiment: cell-based or functional assay
# [2] = molecular target: CD30 expressed on primary T cells transduced with BCL6 and BCL2L1 (Homo sapiens (Human)) (UniProt P28908); experiment: cell-based or functional assay
# Sequence of CD30 expressed on primary T cells transduced with BCL6 and BCL2L1 (Homo sapiens (Human)) (P28908 19-595 limits assumed): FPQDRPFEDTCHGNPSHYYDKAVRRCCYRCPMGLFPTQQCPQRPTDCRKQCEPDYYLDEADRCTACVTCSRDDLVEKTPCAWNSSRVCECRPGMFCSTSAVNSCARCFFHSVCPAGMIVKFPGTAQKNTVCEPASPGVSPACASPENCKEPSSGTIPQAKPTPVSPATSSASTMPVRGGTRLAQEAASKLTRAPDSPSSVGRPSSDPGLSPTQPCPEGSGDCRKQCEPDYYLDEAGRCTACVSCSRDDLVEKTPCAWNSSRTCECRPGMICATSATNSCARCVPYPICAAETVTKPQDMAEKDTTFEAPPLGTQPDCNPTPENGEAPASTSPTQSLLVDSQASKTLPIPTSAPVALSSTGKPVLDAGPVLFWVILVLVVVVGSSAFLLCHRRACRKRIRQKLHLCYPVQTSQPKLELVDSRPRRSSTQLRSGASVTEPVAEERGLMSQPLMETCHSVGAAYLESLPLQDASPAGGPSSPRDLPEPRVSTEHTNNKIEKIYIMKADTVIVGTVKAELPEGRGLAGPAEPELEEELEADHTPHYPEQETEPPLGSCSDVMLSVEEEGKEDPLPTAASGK
# Sequence of tBCMA [BCMA extracellular domain - PDL1 hinge & TM plus Trop2 cytoplasmic domain] (chain, as listed by the source limits assumed, form in doubt): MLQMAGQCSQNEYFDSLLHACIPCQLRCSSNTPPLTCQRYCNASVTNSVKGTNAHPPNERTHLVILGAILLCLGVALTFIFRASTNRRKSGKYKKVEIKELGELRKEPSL
Substance,percent change in live cell number (day 2) [1] [%],percent change in live cell number [2] [%]
belantamab mafodotin (antibody),< 80,–
brentuximab vedotin (antibody),–,< 95
